Drawing on article PMC9114768 (2022), this text covers koff for two molecules.

For orientation: koff means the first-order rate constant of dissociation.

Experiment [1] has as its target C-terminal Fc-tagged human ACE2 recombinant protein (human, UniProt Q9BYF1). In words: SPR. In general terms: In SPR one partner is held on a chip, and binding of the other changes the refractive index at the surface.
Experiment [2] concerns the target His-tagged SARS-CoV-2 S1-RBD recombinant protein, wild type (SARS-CoV-2, UniProt P0DTC2 319-541). In words: SPR.

Sequence of C-terminal Fc-tagged human ACE2 recombinant protein (Q9BYF1 18-740): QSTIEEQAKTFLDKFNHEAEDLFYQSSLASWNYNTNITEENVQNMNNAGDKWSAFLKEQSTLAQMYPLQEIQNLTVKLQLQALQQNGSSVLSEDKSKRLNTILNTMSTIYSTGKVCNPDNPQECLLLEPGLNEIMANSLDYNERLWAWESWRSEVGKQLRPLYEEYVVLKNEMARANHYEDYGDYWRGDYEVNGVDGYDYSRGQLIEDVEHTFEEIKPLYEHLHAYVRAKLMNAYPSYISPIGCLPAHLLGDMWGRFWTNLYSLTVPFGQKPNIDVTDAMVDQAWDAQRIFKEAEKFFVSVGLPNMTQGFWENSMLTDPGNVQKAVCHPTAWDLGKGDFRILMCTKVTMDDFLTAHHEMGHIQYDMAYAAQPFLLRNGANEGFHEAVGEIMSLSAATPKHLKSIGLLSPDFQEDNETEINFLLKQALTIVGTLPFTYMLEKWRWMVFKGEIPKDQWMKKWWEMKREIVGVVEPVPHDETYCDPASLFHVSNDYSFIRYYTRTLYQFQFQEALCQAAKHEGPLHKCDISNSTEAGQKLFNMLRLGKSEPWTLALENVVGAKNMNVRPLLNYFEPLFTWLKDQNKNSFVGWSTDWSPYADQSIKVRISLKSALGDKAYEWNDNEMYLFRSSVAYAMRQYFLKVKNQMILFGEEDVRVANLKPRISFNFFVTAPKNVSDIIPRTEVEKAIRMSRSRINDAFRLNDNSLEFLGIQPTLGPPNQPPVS

B1: monoclonal antibody 127 (antibody, V domains shown)
VH: QVQLQQPGAELVKPGASVKLSCKASGYTFTSYWMHWVKQRPGQGLEWIGEINPSNGRKNYNEKFKSKATLTVDKSSSTAYMQLSSLTSEDSAVYYCVRGDYGSSYYWYFDVWGAGTTVTVSS
VL: not shown
For the molecule B1, the koff in experiment [1] came out at 0.000442 s⁻¹; in experiment [2], 0.00013 s⁻¹.

B2: monoclonal antibody 150 (antibody, V domains shown)
VH: B1 VH
VL: not shown
Regarding B2, the values for the koff in experiment [1] and in experiment [2] were 0.00039 s⁻¹ and 0.000441 s⁻¹, respectively.
